Laboratory results as given in US20160207963A1 (GlaxoSmithKline, published 2016).

Assays:
[1] = biological target: purified, his-tag depleted, recombinant Viet04 HA trimers (influenza A virus A/Vietnam/1203/04 …, UniProt Q6J8F6 17-531); assay: complex formation, size exclusion gel filtration (Superdex 200)
Vietnam Wt (HA1) = Vietnam Wt (HA1) (influenza A virus A/Vietnam/1203/04 …, UniProt Q6J8F6 17-346); assay: biolayer interferometry (ForteBio), HA1 on biosensors probed with IgG 10 µg/ml

B1: 1A2 Fab (Fab, V domains shown)
VH: EVQLQQSGPELVKPGASVKMSCKASGYTFTSFIMYWVKQKPGQGLEWLGYIDPYNDGTKYNEKFEGKATLTSDKSSSTAYMELSSLTSEDSAVYYCAKRGNYGNGFAYWGQGTLVTVSA
VL: DIVMTQSQKFVSTSVGDRVSVTCKASQNVGSNVAWYQHKPGHSPTALIYSASHRYSGVPDRFTGSESGTDFTLTISNVQSEDLAEYFCQQYYSYPYTFGGGTKLEIKR
B1: binds [1].

B2: mouse IgG 1A2 (antibody, V domains shown)
VH: EVQLQQSGPELVKPGASVKMSCKASGYTFTSFIMYWVKQKPGQGLEWLGYIDPYNDGTKYNEKFEGKATLTSDKSSSTAYMELSSLTSEDSAVYYCAKRGNYGNGFAYWGQGTLVTVSA
VL: DIVMTQSQKFVSTSVGDRVSVTCKASQNVGSNVAWYQHKPGHSPTALIYSASHRYSGVPDRFTGSESGTDFTLTISNVQSEDLAEYFCQQYYSYPYTFGGGTKLEIKR
B2: binds (Vietnam Wt (HA1)).
